Assay [1] has as its target T1, LRP2 CR89 (human, UniProt P98164 1025-1102).
T1 construct: domain: CR89; also called YVWR; L2 CR89; not shown: N-terminal hexahistidine and S-peptide tags of pET30(+)a
Briefly: apparent Kd of the variant for the CR pair used in selection; no unit printed in Table 4, nM per Table 2 and paragraph 292.

A further assay addresses T2, LRP2 CR89 R1088D (human, UniProt P98164 1022-1105).
T2 construct: also called YVWD
The experiment in a line: solid-phase assay on coated CR protein, single-site non-linear fit. How it is done: (§1) Solid phase binding assays-Purified, refolded CR protein (1 μg) was bound to Nunc Maxisorp™ 96-well plates in TBS pH 8 supplemented with 5 mM CaCl₂ (TBSC) overnight at 4° C. Wells were washed with TBSC and then blocked with TBSC containing 2% bovine serum albumin (BSA). […] Control wells contained no added ligand. As an additional control, to determine whether the absence of calcium affected binding, 10 mM EGTA was included in the incubation medium for some samples. […] Excess primary antibody was removed and wells washed before incubation with the secondary antibody, HRP-conjugated goat anti rabbit IgG (Bio-Rad). After washing, TMB substrate solutions (Bio-Rad) were added to detect HRP. Color development was stopped with 1N HCl. Absorption at 450 nm was measured with a microplate spectrophotometer (Molecular Devices). Data were plotted and Kd values derived by non-linear regression with the assumption of single-site binding (GraphPad Prism).

Assay [2] addresses T1, LRP2 CR89. The description is as above. The method, then: as §1
The next assay concerns the target T3, LRP2 CR34-36 (human, UniProt P98164 3841-3963).
T3 construct: domain: CR34-36; not shown: N-terminal hexahistidine and S-peptide tags of pET30(+)a
The experiment in a line: solid-phase assay on coated CR protein, each ligand at 80 nM, blank-corrected absorbance. How it is done: (§2) Samples were tested twice, in duplicate, and values combined. Means and standard deviations were then calculated. Blank values obtained from wells incubated in the absence of ligand were used to correct absorbance data.
as §1

A further assay deals with T4, LRP2 CR3031 (human, UniProt P98164 3677-3755).
T4 construct: domain: CR3031; Its cloning is not described in the methods; not shown: N-terminal hexahistidine and S-peptide tags of pET30(+)a
T4 sequence (P98164 3677-3755): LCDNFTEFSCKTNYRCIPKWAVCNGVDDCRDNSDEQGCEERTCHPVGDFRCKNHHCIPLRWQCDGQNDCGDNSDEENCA
The description is as above. The method, then:
as §2, §1

The target in a further assay is T5, MAT CR12 (human, UniProt Q9Y5Y6 452-524).
T5 construct: also called ST14 CR12; matriptase CR12
T5 sequence: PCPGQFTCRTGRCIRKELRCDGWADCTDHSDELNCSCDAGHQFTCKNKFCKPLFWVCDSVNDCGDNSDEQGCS
The assay is described as above. The method, then:
as §2, §1

For the next assay, the target named is T6, LRP2 CR3536 (human, UniProt P98164 3882-3963).
T6 construct: domain: CR3536; not shown: N-terminal hexahistidine and S-peptide tags of pET30(+)a
T6 sequence (P98164 3882-3963): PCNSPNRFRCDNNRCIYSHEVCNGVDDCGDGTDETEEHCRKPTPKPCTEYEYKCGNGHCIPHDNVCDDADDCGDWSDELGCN
Described as above. How it is done: as §2, §1

A further assay addresses T7, LRP2 CR2728 (human, UniProt P98164 3552-3631).
T7 construct: domain: CR2728; Its cloning is not described in the methods; not shown: N-terminal hexahistidine and S-peptide tags of pET30(+)a
T7 sequence (looked up): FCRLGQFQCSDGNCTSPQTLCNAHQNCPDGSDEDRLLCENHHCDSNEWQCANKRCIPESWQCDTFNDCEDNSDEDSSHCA
The assay is described as above. The method, then:
as §2, §1

T1 sequence (P98164 1025-1102): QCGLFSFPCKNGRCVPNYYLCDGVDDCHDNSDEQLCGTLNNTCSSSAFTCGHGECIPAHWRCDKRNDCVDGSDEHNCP
T3 sequence (P98164 3841-3963): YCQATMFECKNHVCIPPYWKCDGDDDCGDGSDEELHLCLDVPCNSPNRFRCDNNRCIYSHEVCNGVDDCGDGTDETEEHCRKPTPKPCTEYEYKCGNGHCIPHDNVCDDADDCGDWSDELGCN

B1: MegaRAP1 d3 (ligand)
chain: LDRLRRVSHQGYTTEAKFEEPRVIDLWDLAQSANLTDKELEAFREELKYFKAKIEAHNHYQKQLEIAHEELRHAESVGDGERVSRSREKHALLEGRTKELGYTVKKHLQDLSGRISRAR
notes: V175L lies outside the d3 construct; also called RAPv2A d3; RAP v2 d3; not shown: N-terminal hexahistidine and S-peptide tags of pET30(+)a
Consider B1, for which the Kd with LRP2 CR89 [1] amounted to 38 nM; in the assay with LRP2 CR89 R1088D, 78 nM; with LRP2 CR89 [2], 33 nM. In addition, the binding result with LRP2 CR34-36, with LRP2 CR3031, with MAT CR12, with LRP2 CR3536 and with LRP2 CR2728 was “no binding (tested: 80 nM)” each time.

The record behind these values is patent US20100210517A1 (RAPTOR PHARMACEUTICAL, published 2010).
